# B1: BD-11: recombinant keratin, amino acid sequence SEQ ID NO:1, expressed in E. coli, band around 59 kD; Example 4 batch tested (protein, listed as Bos taurus)
# chain: MSRQSTITFQTSSRRGFSTASATTPATSRSRFSSASVTHSPAGSGGLGRISGFGSRSLYNLGGTKRVSISGCGSNFRSGFGGRASSGFGVSGGFGYGGGIGGGHGGCGFSVCPPGGIQEVTVNQSLLTPLNLQIDPNIQRVRKEEREQIKTLNNKFASFIDKVRFLEQQNKVLETKWSLLQEQGTRTVRQSLEPFFEAYITDLRRQLDSITTERGRLDAELRTMQDVVEDFKVRYEDEINKRTAAENEFVALKKDVDAAYLNKVDLEAKANSLTDEINFLQMLFEAELCQMQTRVSDTSVVLSMDNNRSLDLDSIIAEVKAQYEEIANRSRAEAESWYQTKYEELQVTAGQHGDDLRNTKQEISETNRMIQRLRAEIDNVKKQCASLQTAIADAEQRGELALKDARAKLVDLEEALQKSKQDMARLLREYQELMNIKLALDVEIATYRKLLEGEECRLSGEGVSPVNISVVTSTVSSGYGGGSSIGSGSLGLSGGSGCSFMTSGGHSLGGSSFSNSSSRGLGGSGSSFKFVSTTSSSRKSYKH
# What was measured:
# [1] = system: tracheal phenol red excretion in ICR mice; experiment: Expectorant test, phenol red excretion method in mice; type: in vivo, mouse; settings: for Phenol red excretion: X±SEM, n=10
# Description: • Animals: male ICR mice; • Drugs and reagents: Mucosolvan (ambroxol hydrochloride tablets), phenol red, sodium bicarbonate, protein BD-11; • Instruments: centrifuge (Sigma-3K15 type), balance (XS105DU type), Microplate tester (BIO-TEK type).
# Experiment grouping: • Solvent control group; • Mucosolvan 30 mg/kg group; • Protein BD-11, 20 mg/kg group, 50 mg/kg group.
# The animals were fasted and water was taken freely 16 hours before the experiment. Orally administered Mucosolvan and different doses of protein BD-11 (administration volume 10 ml/kg) in groups, and the solvent control group was given the same volume of distilled water. One hour later, 2.5% phenol red solution was injected intraperitoneally. Mice were sacrificed by neck dislocation after 30 minutes. Take a trachea from below the thyroid cartilage to the branch of the trachea, and put the trachea into 3 ml 5% NaHCO3 solution and let it stand for 3 hours. Take 1 ml of the supernatant and centrifuge at 3000 rpm for 5 minutes. Measure and record the absorbance at 546 nm. According to the standard curve of phenol red, the excretion of phenol red was calculated.
# Record the time point of oral administration, the time point of intraperitoneal injection of 2.5% phenol red solution, and the time point of taking the trachea respectively; The absorbance of each group of samples was measured by the microplate reader at 546 nm, Calculate the excretion of phenol red according to the standard curve of phenol red. Calculate the mean and standard error of the data in each group, and use TTEST to compare the solvent control group with other groups, and P<0.05 is considered as a significant difference.
# Give Mucosolvan (30 mg/kg) and different doses of protein BD-11 (20 mg/kg, 50 mg/kg). One hour later, 2.5% phenol red solution was intraperitoneally injected, and 30 minutes later, the mice were sacrificed by neck dislocation. Take the trachea from below the thyroid cartilage to the branch of the trachea, put the trachea into 3 ml of 5% NaHCO3 solution and let it stand for 3 hours, take 1 ml of supernatant, centrifuge at 3000 rpm for 5 minutes, measure and record the absorbance at 546 nm. According to the standard curve of phenol red, the excretion of phenol red was calculated.
# [2] = system: lipopolysaccharide (LPS) induced fever in SD rats; experiment: Lipopolysaccharide (LPS) induced fever model in SD rats; type: in vivo, rat; settings: for Body temperature 2 hours after modeling: 2 h after LPS 20 µg/kg i.p.; for Body temperature 2 hours after modeling / Body temperature 4 hours after modeling / Body temperature 6 hours after modeling / Body temperature 8 hours after modeling: n=8; for Body temperature 4 hours after modeling: 4 h after LPS 20 µg/kg i.p.; for Body temperature 6 hours after modeling: 6 h after LPS 20 µg/kg i.p.; for Body temperature 8 hours after modeling: 8 h after LPS 20 µg/kg i.p.
# Description: • Animals: 230-260 grams of male SD rats; • Drugs: lipopolysaccharide (LPS, SIGMAL-2880), aspirin (SIGMA A2093), protein BD-11; • Instruments: electronic balance (SARTORIUS BP121S type), electronic clinical thermometer (CITIZEN CT-513W type).
# Experiment grouping: • Normal control group; • Model group: lipopolysaccharide fever model; • Positive control group: Aspirin 300 mg/kg group; • Protein BD-11, 10 mg/kg group, 50 mg/kg group. Method: the method of intraperitoneal injection of Lipopolysaccharide to replicate rat fever model.
# Preparation of experimental animals: After the experimental animals adapt to the experimental environment (temperature 22° C.±2° C., relative humidity 50%±2%) for 1 day. Pre-adaptation to measure rectal temperature at 8:00 and 15:00, rats were fasted and water was taken freely 12 h before experiment, and let the animal to empty its feces before measuring the rectal temperature. Apply petroleum jelly to the electronic thermometer probe before each temperature measurement. Insert the rat rectum 2 cm (can be marked at 2 cm to ensure that the depth of each insertion is consistent), and record the body temperature after the reading is stable.
# Intraperitoneal injection of lipopolysaccharide to replicate rat fever model: The body temperature of the rats was measured before modeling. Qualified rats with a body temperature of 36.2-37.3° C. were selected and randomly divided into groups with 8 rats in each group. After oral administration of aspirin and different doses of protein BD-11, lipopolysaccharide (20 µg/kg, 2 ml/kg) was injected intraperitoneally immediately, and the normal control group was injected intraperitoneally with an equal volume of normal saline. The body temperatures of the rats were monitored after 2 hours for a total of 8 hours.
# According to the body temperature measured at each time point on the day of the experiment, calculate the mean, standard deviation and standard error of the body temperature of each group of rats. The data of each group was compared with TTEST, and P<0.05 was considered as a significant difference.
# Immediately after oral administration of aspirin (300 mg/kg), protein BD-11 (10 mg/kg, 50 mg/kg), intraperitoneal injection of 20 µg/kg lipopolysaccharide was performed to establish a model. The animal body temperature was monitored at 2 hours, 4 hours, 6 hours, and 8 hours after modeling.
# [3] = system: acetic acid writhing in ICR mice; experiment: Acetic acid writhing test in ICR mice; type: in vivo, mouse; settings: for Writhing incubation period: 0.6% acetic acid i.p.; for Writhing incubation period / Frequency of writhing: n=13; for Frequency of writhing: within 15 minutes
# Description: • Animals: male ICR mice; • Drugs and reagents: aspirin, physiological saline, glacial acetic acid, protein BD-11.
# Experiment grouping: • Model group; • Aspirin 300 mg/kg group; • Protein BD-11, 50 mg/kg group, 200 mg/kg group.
# One day after the experimental animals adapt to the environment, Aspirin 300 mg/kg, protein BD-11 50 mg/kg, 200 mg/kg were given orally one hour in advance, and the administration volume was 10 ml/kg; Then, 0.6% acetic acid solution was injected intraperitoneally, and the incubation period (seconds) and frequency of writhing in the animal was observed within 15 minutes.
# Calculate the mean and standard error of the data in each group. Compared with the model group by TTEST, P<0.05 was considered as statistically different.
# One hour after oral administration of aspirin 300 mg/kg and different doses of protein BD-11 (50 mg/kg, 200 mg/kg), 0.6% acetic acid solution was intraperitoneally injected to observe the writhing incubation period and frequency of ICR mice.
# 0.6% acetic acid solution was injected into the abdominal cavity of mice, which caused deep and large area and long-term painful stimulation, causing the mice to writhe (the abdomen was contracted into an “S” shape, the trunk and hind legs were stretched, the buttocks were raised and creeping). The incubation time to start writhing and times of writhing in mice were used as the pain response indexs to determine whether the test sample had analgesic effect. […] Compared with the model group, P<0.05, which is statistically significant.
molecule,measurement,setting,value
B1,Phenol red excretion,[1]; BD-11 20 mg/kg oral,0.670 ± 0.082 µg/mL
same,Excretion of phenol red vs solvent control group,"[1]; BD-11 50 mg/kg dose group, P<0.05",significantly increased the excretion of phenol red
same,Phenol red excretion,[1]; BD-11 50 mg/kg oral,0.781 ± 0.043 µg/mL
same,Expectorant effect (summary),[1]; dose not given,obvious expectorant effect
same,Effect on increase in body temperature (summary),"[2]; 2, 4, 6 and 8 hours after modeling, dose not given",significantly inhibit the increase in body temperature
same,Body temperature 2 hours after modeling,[2]; BD-11 10 mg/kg oral,37.2±0.2 °C
same,Body temperature 4 hours after modeling,[2]; BD-11 10 mg/kg oral,37.7 °C
same,Body temperature 6 hours after modeling,[2]; BD-11 10 mg/kg oral,37.6 °C
same,Body temperature 8 hours after modeling,[2]; BD-11 10 mg/kg oral,37.4±0.1 °C
same,Body temperature 2 hours after modeling,[2]; BD-11 50 mg/kg oral,37.3 ± 0.1 °C
same,Body temperature 4 hours after modeling,[2]; BD-11 50 mg/kg oral,37.5 ± 0.2 °C
same,Body temperature 6 hours after modeling,[2]; BD-11 50 mg/kg oral,37.7 °C
same,Body temperature 8 hours after modeling,[2]; BD-11 50 mg/kg oral,37.7±0.2 °C
same,Effect on body temperature of model rats,"[2]; BD-11 10, 50 mg/kg oral, 2 hours after modeling","tendency to lower the body temperature of model rats 2 hours after modeling, but there is no statistically significant"
same,Writhing incubation period,[3]; BD-11 50 mg/kg oral,163.8 ± 8.2 s
same,Frequency of writhing,[3]; BD-11 50 mg/kg oral,35.0 ± 2.5 times
same,Effect on number of writhing in mice,"[3]; BD-11 200 mg/kg dose group, P<0.05 vs model group",significantly reduce the number of writhing
same,Writhing incubation period,[3]; BD-11 200 mg/kg oral,299.9 ± 65.2 s
same,Frequency of writhing,[3]; BD-11 200 mg/kg oral,23.3 ± 3.1 times
same,Effect on number of writhing times in mice (summary),[3]; dose not given,significantly reduce the number of writhing times
